Measurements reported in article PMC11546159.

Molecular target: HLA-A*02:01 on the surface of T2 cells
Test: FACS, anti-HLA antibody staining of peptide-pulsed T2 cells (% HLA-A*02+)
Settings: peptide 50 μM
[1] = parent: est. 77, read off a plot

Substance: HPV16 E6 29-38 peptide I6A
- response (parent: 79): 71%
- response [1]: 69%

Substance: HPV16 E6 29-38 peptide E8A
- response (parent: 79): 74%
- response [1]: 76%

Substance: HPV16 E6 29-38 peptide V10A
- response (parent: 79): 2%

Substance: HPV16 E6 29-38 peptide C9A
- response (parent: 79): 60%
- response [1]: 58%

Substance: HPV16 E6 29-38 peptide I5A
- response (parent: 79): 33%
- response [1]: 34%

Substance: HPV16 E6 29-38 peptide I2A
- response (parent: 79): 2%

Substance: HPV16 E6 29-38 peptide H3A
- response (parent: 79): 84%
- response [1]: 81%

Substance: HPV16 E6 29-38 peptide L7A
- response (parent: 79): 2.4%

Substance: HPV16 E6 29-38 peptide T1A
- response (parent: 79): 79%
- response [1]: 79%

Substance: HPV16 E6 29-38 peptide D4A
- response (parent: 79): 1.9%
